± gives the uncertainty stated by the source.

This series is described as follows: amyloid nucleation score (Sup35N fusion, yeast selection) (log enrichment); library NNK1; higher = more nucleation; inactive = no reads after selection. Put shortly: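 After 24 hours of induction with 100 μM copper sulfate, psi-negative yeast expressing peptides of 20 random codons fused to Sup35N were grown for 7 days at 30°C on medium lacking adenine and uracil. Input and output plasmid inserts were sequenced with Illumina, and sequences with under 100 input reads were discarded. Scores for nucleation are the DiMSum log enrichment of output over input reads, centred on the mode score of non-aggregating sequences.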
As to GNVFRLWLNM, the amyloid nucleation score is 0.369 ± 0.38.

For the substance QMCLFKVNLVVTISI, the amyloid nucleation score result was “inactive”. Take WVRGSYPPDAHR: the amyloid nucleation score was 1.86 ± 0.29.

In turn, GGKRVGNIVVRRAQIIIGRR showed an amyloid nucleation score of 1.07 ± 0.7. FPLCSCHCYSSTWMCYRASL showed an amyloid nucleation score of 0.048 ± 0.97.

Take TSACFFFRCCCLRS: the amyloid nucleation score came to 3.76 ± 0.15. Then HVLMIRWLWWGISRACKNSR, with -0.193 ± 1.6; and YSRMQVAIYMYLVE, with 3.19 ± 0.17. In turn, YQDVVDSDD returned an amyloid nucleation score of -0.762 ± 0.64.

For GPSWFGVPTAAFF, the amyloid nucleation score stood at 0.502 ± 0.43. The substance WTRCHK gave an amyloid nucleation score of -0.297 ± 0.35. In turn, CGSRVDGSCTAGTSIWVVDV yielded an amyloid nucleation score of 0.528 ± 0.66. VNVIWAFYNN gave an amyloid nucleation score of 5.7 ± 0.072.

With FSHLKYNSVHFIPLRDFDSL, the amyloid nucleation score is 0.938 ± 0.41. On to MRVLDTNSGLMTITPFPVHS, for which the amyloid nucleation score was -0.574 ± 0.67. YACQQ registered an amyloid nucleation score of 0.314 ± 0.62. GFYGCYSYVVLGGRVEP yielded an amyloid nucleation score of -1.02 ± 2.4. LWPEPVSRSIHSRSH had an amyloid nucleation score of 0.976 ± 0.55.

As for ICNFVSLFNWK, the amyloid nucleation score was -0.025 ± 0.79. The entry for WLVHIHRTSSISYILCLDLG is “inactive”. GYVDPFRLYQGLMIFDYVGS: the amyloid nucleation score is -0.332 ± 0.44. Substance PSRLIYDYAAFTVVGLLEMF gave an amyloid nucleation score of -0.235 ± 0.56. On to LNIEVFNFICNRRAIWMRFA, for which the amyloid nucleation score was 0.684 ± 0.53.

On to VYINVYHYWRFSKKYVGKLL, for which the amyloid nucleation score came to 0.318 ± 0.17. FGFHRVGSGIMRVVAQH registered an amyloid nucleation score of 0.242 ± 0.44. In turn, GSNLVQKRRCYSWMSLYLSS yielded an amyloid nucleation score of 0.333 ± 0.26.

Consider HYRCVRGYSFFVLLCDSRIQ, for which the amyloid nucleation score was -0.497 ± 0.93.

LRCVLQSRRWEIGMLRLTER: the amyloid nucleation score was -0.267 ± 0.35. The figure for WSKYVESVRVETVGQVFQLV is -0.009 ± 0.51; for GTREPDFGCKLDWDSY it is 0.924 ± 0.25. Substance ACYGLIDQLFQLANPYRTAM had an amyloid nucleation score of 0.412 ± 0.32. On to SRMWR, for which the amyloid nucleation score was -0.068 ± 0.45. In turn, KLQIPLGQVSLGSKVMKTGV showed an amyloid nucleation score of -1.08 ± 2.4. ILPCFDANIIQDP registered an amyloid nucleation score of -0.064 ± 0.81.

The substance VSVNTVFH registered an amyloid nucleation score of 0.36 ± 0.44.

For FCSDFKSEYSIWDYWVWHKV, the amyloid nucleation score was -0.306 ± 0.37. The figure for RIFLSVLLLMTVNVSVWPCH is -1.23 ± 1.5; for LYFMSISTMAIRSCGVGLHQ it is 0.235 ± 0.37; for FFYRPYVFMCLFYMVSRAGS it is 4.41 ± 0.078. Then TKSRRSEGCEMPCHCNEVFV, with 0.497 ± 0.72. The figure for VWSAMDKALLDSGDGSPMG is 0.138 ± 0.36; for FQARHIFHVFLVSSSRVRLT it is 1.65 ± 0.47. Take TMGLSLYGV: the amyloid nucleation score was -0.174 ± 0.51. The substance FFAIVGRKVCRGSIHFWSIT yielded an amyloid nucleation score of 1.23 ± 0.61. Substance YYMMTKRGFNMILCCCCRCF displayed an amyloid nucleation score of 0.667 ± 0.2.

For the substance AFGMIVLGRSTNGGYCTDGN, the amyloid nucleation score is 2.83 ± 0.16. The figure for TISLDRRDAVNYLVAHLCSV is -0.146 ± 1.4.

FVLRV registered an amyloid nucleation score of 0.423 ± 0.47. VLESIQGCYFLGASWIAEFR: the amyloid nucleation score turned out to be 0.409 ± 0.48. The figure for KWIGIYINFDGYSVGS is 7.598 ± 0.044; for FRWRSSGGLVCFLDAVVVSV it is -0.249 ± 0.38; for RVSGMAGFFTIKLLKRRSWA it is -0.503 ± 0.62. In turn, VPVWFSTSISQWSNLQ came in with an amyloid nucleation score of -1.09 ± 2.4. The figure for SSLNLMPQVGEGRHTGV is -0.648 ± 0.46; for LCSMWEGRGADEMLAICQGA it is 0.152 ± 0.59. In turn, NSWKNADVWCNASMHGWSGW gave an amyloid nucleation score of 0.697 ± 0.72.

Substance RANQHRGYIFSILVTFCYST displayed an amyloid nucleation score of -0.505 ± 0.51.

As for EVHGFNRCGLKSIRVHKVYA, the amyloid nucleation score came to 0.839 ± 0.62.

As for LMYKICTLVRRLHLSRYKNM, the amyloid nucleation score is -1.27 ± 1.7. Turning to MGHAGTLCFANNCLNM, the amyloid nucleation score was 7.483 ± 0.059. In turn, TVYMGTLCHYYSGIRLGSIL registered an amyloid nucleation score of 0.458 ± 0.4. Substance NGNNQYRPVCDYSYYRRSCS returned an amyloid nucleation score of -0.234 ± 1.6.

Consider GRGVPGCGCIRDRSLMTNWS, for which the amyloid nucleation score was -0.664 ± 0.41. As to YLFMNRGTVSWRSVYDRV, the amyloid nucleation score was 0.104 ± 0.42. For NKQETSKWLWECGDCSRYLY, the amyloid nucleation score stood at 1.18 ± 0.41.

For the substance HWFESDFAI, the amyloid nucleation score entry is “inactive”. TMIWLVAPPPLLAMVLY yielded an amyloid nucleation score of 0.392 ± 0.6. The figure for AYWSGTYEGEWYLVDRQFYW is 0.542 ± 1.

AFAVSSYWVRGIHRESYGSV gave an amyloid nucleation score of 0.591 ± 0.69. With SFTNDSSRSWRHTRLGSCCE, the amyloid nucleation score is 1.48 ± 0.63. VNRYFVFVSVMIYMLCESRF gave an amyloid nucleation score of 0.295 ± 0.75. In turn, LYSLGTSHEIPCLM displayed an amyloid nucleation score of 0.442 ± 0.42. For TFVDGGSFSENVVVMIRFYH, the amyloid nucleation score came out at 4.99 ± 0.064.

Substance KLLSTDNLYVQSYLFEDCNR returned an amyloid nucleation score of -0.544 ± 0.59. Substance VFRTISYRV had an amyloid nucleation score of 0.039 ± 0.69. In the case of KRLRTKFYVVLYFSYMSSTL, the amyloid nucleation score was -1.52 ± 1.5. Substance VGVMFG yielded an amyloid nucleation score of -0.06 ± 0.69.

With RMDFIHISTAIFSKEVDSRR, the amyloid nucleation score turned out to be 1.04 ± 0.47.

DVVEYVIWSYTWMNLAHYCR displayed an amyloid nucleation score of 0.136 ± 0.24. Substance FLGLCS had an amyloid nucleation score of -0.278 ± 0.4.

As for TGGFIFHGCAFYRMFSWLVD, the amyloid nucleation score is 0.849 ± 1.1. The figure for AESLWQFTWQVTKPHEEGSE is 4.35 ± 0.068; for MRFAVTD it is -0.146 ± 0.23; for WTAFGRFAVQTFFEKHM it is -0.275 ± 0.24. For IVHMIYWVM, the amyloid nucleation score came out at 0.009 ± 0.61. Then SSVYVRLVMGF, with 1.77 ± 0.61; and LYNVKTGFVRQTDVG, with 0.106 ± 0.91; and WVCLNYYWGCVRRTTRVFCL, with -0.198 ± 0.52. For the substance PDSTVARVDVSPELIFCLKS, the amyloid nucleation score was -0.708 ± 0.6. DIRLTMRVSSLSM yielded an amyloid nucleation score of 0.566 ± 0.31.

The substance LTLVNASSSRYEMSLFFQSI displayed an amyloid nucleation score of 2.53 ± 0.12. Take SVYPLF: the amyloid nucleation score was -0.268 ± 0.28. The substance LGCFGIAATKIRKVDMRLGG registered an amyloid nucleation score of 0.729 ± 0.39. For the substance LFGPDLSTRNPGDVSVQSAA, the amyloid nucleation score was found to be 0 ± 0.39. The entry for WKCLRYPY is “inactive”; for TFYKYVGSTISPSFGFRYVG it is -0.052 ± 0.38; for RVLRIVEAVVVSSCGFVDLR it is 1.69 ± 0.25.

DSTFHMDYY showed an amyloid nucleation score of -0.121 ± 0.5.

AGQVYRFAVSVRSSKLIVAR: the amyloid nucleation score turned out to be 0.966 ± 0.45.

On to WSRAVVFMSIHFRNGLMQ, for which the amyloid nucleation score is -0.444 ± 0.64.

Consider VRGVARYNRKFGDCFYPTHG, for which the amyloid nucleation score was 0.065 ± 1.5. DHFKG had an amyloid nucleation score of -0.044 ± 0.84. The figure for LSWVQSLKACNI is 1.45 ± 0.4; for VLTNESRGYTIRLGSYSRFV it is 2.4 ± 0.49. Substance HILRIWLRGLWMILYRTYEN showed an amyloid nucleation score of -0.513 ± 0.84. Take HMSWMYEWMNVTCKVNMCR: the amyloid nucleation score was determined as 2.06 ± 0.24. AGCHGSDSHPFRQPSPLLLF displayed an amyloid nucleation score of 0.462 ± 1.2.

Turning to ALCFGR, the amyloid nucleation score entry is “inactive”.

The substance YIKGDQLVVVDTYMFRVKL registered an amyloid nucleation score of -0.991 ± 2.4. Take INLLVPFQNESVLELNATEW: the amyloid nucleation score came to 0.772 ± 0.51. With RQFSSTRFCREHRITGMQLG, the amyloid nucleation score worked out at 0.369 ± 0.79.

Take CLEVFKNGCRNLRTGRVINR: the amyloid nucleation score was found to be 1.03 ± 0.9.

In turn, KIPLNRIAVNASLRQRYCNP displayed an amyloid nucleation score of 0.122 ± 0.27. The substance LYTKFFEAMWQVWRFERTQR displayed an amyloid nucleation score of 2.53 ± 0.21. With LRSKCECNTRGSCAWWCSDA, the amyloid nucleation score was 1.1 ± 0.9. In turn, FFNVVYLTRANASYTGYSNI had an amyloid nucleation score of 5.41 ± 0.063. In turn, DVSLNVNLYVHRFMCHQVPI had an amyloid nucleation score of 0.515 ± 0.28. As for ICFRIIVAIVQRV, the amyloid nucleation score stood at 1.14 ± 0.38. In turn, LQLIGYRDNWSGVMFYLERG had an amyloid nucleation score of 0.838 ± 0.55. The figure for RKSLTGYKYCMKWGTIVAPN is 0.745 ± 0.59. As to CHYGDPSGWGQLTPSTWTGE, the amyloid nucleation score stood at 0.573 ± 0.42. On to LIDLSSIKSWHVFSKALCGR, for which the amyloid nucleation score was determined as 0.006 ± 0.27.

DTECRGMKVELHRTHRMGKF had an amyloid nucleation score of -0.179 ± 0.62. Turning to LYIYTKFRFVMYVSWCVSDS, the amyloid nucleation score stood at 0.012 ± 0.62. For HQYVMFESLTYICLPLRDRL, the amyloid nucleation score came to 4.98 ± 0.1. ITGPIEGGVTK showed an amyloid nucleation score of -0.118 ± 0.8. With SSPSMSINVYRLNKS, the amyloid nucleation score result is “inactive”.

Turning to ALMDKDLCLNMSGQKSLWFR, the amyloid nucleation score was found to be 0.073 ± 0.48. The substance MSKKMQRPRVAAVGFERFGT had an amyloid nucleation score of -0.174 ± 0.9.

On to RAMVLCGGCTWPAREDNEKV, for which the amyloid nucleation score came out at 0.506 ± 0.33. Substance SLHSDVRHRRVVYVVREIAY yielded an amyloid nucleation score of -0.096 ± 1.1. With GFLIGRSD, the amyloid nucleation score was 0.022 ± 0.43. The figure for HGLKWGFQLTNLSMLVTSCM is -0.475 ± 1.1; for YSLFAGLREVSMDVCNDV it is 0.39 ± 0.5; for LGVVFGRRVHCRLASSVMNM it is -0.723 ± 1.5.

In the case of YNVSHLIRV, the amyloid nucleation score is -0.959 ± 0.26.

On to VWGINILMSFPIV, for which the amyloid nucleation score came to 5.674 ± 0.053. PSSACCGSHFLCEQEFMICY displayed an amyloid nucleation score of 0.146 ± 0.71. Substance NLSGRSLSRLIDLFNRFTC gave an amyloid nucleation score of 0.919 ± 0.29.

These data come from the supplement of paper PMC12042874.
